6 molecules from article PMC6585436 (Chemistry & biology, 2015) can be followed below.

One may read the stoichiometry N as the number of molecules, sites or subunits per partner or assembly.

Values joined by “and” are separate entries in the source; they are usually repeats but may differ in a detail not shown here. Equal values may be shown once. Read-outs that look alike come from different tables or passages of the source.

Assay in all cases: native MS
The target of series [1] is N-His MtMscL (pet15b-10xHis-Thrombin-MtMscL-PG) (Mycobacterium tuberculosis) (UniProt A5U127).
For series [2] the target is unchanged. The source holds these as a separate data set.
In series [3] the target is AfMscL C-GFP (pet15b-AfMscL-TEV-GFP-6xHis) (Acidithiobacillus ferrooxidans).
Series [4] deals with the molecule itself.
Series [5] deals with the molecule itself. This is another data set of the same source.
Series [6] deals with the molecule itself. The source holds these as a separate data set.
Series [7] deals with the molecule itself. The source holds these as a separate data set.
Series [8] concerns the molecule itself. The source holds these as a separate data set.

In turn, “N-His MtMscL (pet15b-10xHis-Thrombin-MtMscL-PG) (from UniProt A5U127 1-151) (natural protein)” returned a stoichiometry N in series [1] of 5. In series [2], this molecule returned a relative abundance of pentamer of 38%, a relative abundance of tetramer of 63% and a stoichiometry N of 4.
Take “AfMscL C-GFP (pet15b-AfMscL-TEV-GFP-6xHis) (natural protein)”: the stoichiometry N in series [3] came out at 5.

B1: SaMscL C-GFP (pet15b-SaMscL-S-TEV-GFP-6xHis) (natural protein, Staphylococcus aureus, UniProt P68805 1-120, looked up)
chain: MLKEFKEFALKGNVLDLAIAVVMGAAFNKIISSLVENIIMPLIGKIFGSVDFAKEWSFWGIKYGLFIQSVIDFIIIAFALFIFVKIANTLMKKEEAEEEAVVEENVVLLTEIRDLLREKK
As to B1, the “stoichiometry N” value in series [4] turned out to be 5; in series [5], 4.

B2: N-His SaMscL (pet15b-10xHis-Thrombin-SaMscL) (natural protein, Staphylococcus aureus, UniProt P68805 1-120, looked up)
chain: MLKEFKEFALKGNVLDLAIAVVMGAAFNKIISSLVENIIMPLIGKIFGSVDFAKEWSFWGIKYGLFIQSVIDFIIIAFALFIFVKIANTLMKKEEAEEEAVVEENVVLLTEIRDLLREKK
In the case of B2, the “stoichiometry N” value in series [4] was 4 and 3 and 2; in series [6], 5.

B3: Full-length SaMscL, cleaved of its C-terminal GFP tag (natural protein, Staphylococcus aureus, UniProt P68805 1-120, looked up)
chain: MLKEFKEFALKGNVLDLAIAVVMGAAFNKIISSLVENIIMPLIGKIFGSVDFAKEWSFWGIKYGLFIQSVIDFIIIAFALFIFVKIANTLMKKEEAEEEAVVEENVVLLTEIRDLLREKK
For the molecule B3, the “stoichiometry N” value in series [7] is 5 and 4.

B4: SaMscL CΔ25 C-GFP (pet15b-SaMscL CΔ(96–120)-S-TEV-GFP-6xHis) (domain or fragment)
chain: MLKEFKEFALKGNVLDLAIAVVMGAAFNKIISSLVENIIMPLIGKIFGSVDFAKEWSFWGIKYGLFIQSVIDFIIIAFALFIFVKIANTLMKKEE
For the molecule B4, the “stoichiometry N” value in series [8] was 5; in series [6] it was 4.
